Drawing on patent US20250313635A1, “ANTI-INTEGRIN ANTIBODIES AND USES THEREOF” (Merck Sharp & Dohme LLC, priority 2022, published 2025), this text covers IC50 for three molecules.

To fix the notation:
B1: Ab-29 (antibody, V domains shown)
VH: ELQLQESGPGLVKPSETLSLTCTVSGGSISSNSYYWGWIRQPPGKGLEWIGSIYYSGSTYYNPSLKSRVTISVDTSKNQFSLKLSSVTAADTAVYYCARVRRVAGRGDSYYYYYGMDVWGQGTTVTVSS
VL: DIQMTQSPSSVSASVGDRVTITCRASQGISRWLAWYQQKPGKAPKLLIYAASSLQSGVPSRFSGSGSGTDFTLTISSLQPEDFATYYCQQAISHPWTFGGGTKVEIK
B2: Ab-30 (antibody, V domains shown)
VH: EVQLQESGPGLVKPSETLSLTCAVSGYSISSGYYWGWIRQPPGKGLEWIGSIYHSGNTYYNPSLKSRVTISVDTSKNQFSLKLSSVTAADTAVYYCARVPRYSRGDAYYYYGMDVWGQGTTVTVSS
VL: DIQMTQSPSTLSASVGDRVTITCRASQSISSWLAWYQQKPGKAPKLLIYKASSLESGVPSRFSGSGSGTEFTLTISSLQPDDFATYYCQQVKIYPPYTFGGGTKVEIK
B3: Ab-31 (antibody, V domains shown)
VH: EVQLQESGPGLVKPSETLSLTCAVSGYSISSGYYWGWIRQPPGKGLEWIGSIYHSGNTYYNPSLKSRVTISVDTSKNQFSLKLSSVTAADTAVYYCARVPRYSRGDAYYYYGMDVWGQGTTVTVSS
VL: DIQMTQSPSTLSASVGDRVTITCRASQSIGSWLAWYQQKPGKAPKLLIYKASSLESGVPSRFSGSGSGTEFTLTISSLQPDDFATYYCQQSGPYPWTFGGGTKVEIK

In this assay the target is recombinant mouse αvβ8 integrin extracellular domains (mouse) (UniProt P43406). The experiment in a line: AlphaLISA blocking of mouse LAP-6His binding.
recombinant mouse αvβ8 integrin extracellular domains (mouse), sequence (P43406 other isoform, or with tags, fused parts or gaps, form in doubt, chain 1 of 2): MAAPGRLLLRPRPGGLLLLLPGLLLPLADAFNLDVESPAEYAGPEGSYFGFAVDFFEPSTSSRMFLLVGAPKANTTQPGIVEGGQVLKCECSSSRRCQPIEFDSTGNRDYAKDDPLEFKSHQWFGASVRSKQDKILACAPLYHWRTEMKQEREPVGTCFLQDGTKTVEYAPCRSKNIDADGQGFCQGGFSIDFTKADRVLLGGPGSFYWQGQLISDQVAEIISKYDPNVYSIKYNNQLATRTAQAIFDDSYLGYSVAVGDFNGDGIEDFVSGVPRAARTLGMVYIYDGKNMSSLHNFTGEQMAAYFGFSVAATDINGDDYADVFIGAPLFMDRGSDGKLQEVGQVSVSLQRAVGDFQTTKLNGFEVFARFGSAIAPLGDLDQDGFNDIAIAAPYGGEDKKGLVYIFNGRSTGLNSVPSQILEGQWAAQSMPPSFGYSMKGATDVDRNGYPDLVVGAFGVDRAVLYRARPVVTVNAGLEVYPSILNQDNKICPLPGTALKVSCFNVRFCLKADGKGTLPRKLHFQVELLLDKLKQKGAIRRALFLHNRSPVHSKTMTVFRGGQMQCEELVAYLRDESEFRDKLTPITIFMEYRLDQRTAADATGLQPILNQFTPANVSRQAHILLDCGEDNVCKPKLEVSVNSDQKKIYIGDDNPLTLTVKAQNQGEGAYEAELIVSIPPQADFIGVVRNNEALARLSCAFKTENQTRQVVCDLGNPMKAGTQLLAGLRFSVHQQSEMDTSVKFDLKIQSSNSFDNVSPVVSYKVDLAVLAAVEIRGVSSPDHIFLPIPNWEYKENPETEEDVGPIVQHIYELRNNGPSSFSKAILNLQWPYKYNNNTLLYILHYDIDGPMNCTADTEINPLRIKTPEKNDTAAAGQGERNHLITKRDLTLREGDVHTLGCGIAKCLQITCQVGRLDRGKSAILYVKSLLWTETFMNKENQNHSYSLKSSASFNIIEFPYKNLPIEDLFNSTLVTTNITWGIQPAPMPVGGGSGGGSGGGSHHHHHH
recombinant mouse αvβ8 integrin extracellular domains (mouse), sequence (Q0VBD0 other isoform, or with tags, fused parts or gaps, form in doubt, chain 2 of 2, further chain): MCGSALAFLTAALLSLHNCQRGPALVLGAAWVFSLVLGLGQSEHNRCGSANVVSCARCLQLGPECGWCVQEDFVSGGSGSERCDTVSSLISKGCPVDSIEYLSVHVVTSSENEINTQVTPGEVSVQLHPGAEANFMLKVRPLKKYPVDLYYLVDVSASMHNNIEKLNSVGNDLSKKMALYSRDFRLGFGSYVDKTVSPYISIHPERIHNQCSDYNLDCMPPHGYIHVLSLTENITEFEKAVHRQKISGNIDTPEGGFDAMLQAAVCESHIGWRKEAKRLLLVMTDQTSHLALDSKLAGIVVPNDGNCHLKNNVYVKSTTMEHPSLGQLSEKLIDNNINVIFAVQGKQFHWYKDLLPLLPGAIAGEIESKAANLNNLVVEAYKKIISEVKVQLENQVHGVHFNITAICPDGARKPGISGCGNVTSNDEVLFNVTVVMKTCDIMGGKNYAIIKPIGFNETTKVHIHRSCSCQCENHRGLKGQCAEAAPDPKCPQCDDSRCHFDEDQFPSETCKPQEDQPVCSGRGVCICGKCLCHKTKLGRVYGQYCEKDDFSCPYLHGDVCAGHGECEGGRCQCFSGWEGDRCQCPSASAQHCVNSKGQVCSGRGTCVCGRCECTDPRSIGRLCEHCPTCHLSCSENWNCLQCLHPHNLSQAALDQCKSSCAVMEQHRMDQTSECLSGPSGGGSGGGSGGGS
Take B1: the IC50 stood at 102 nM.
The result for B2 reads 25.1 nM; that for B3, 66.3 nM.

As usually defined, the IC50 is the concentration that inhibits the measured activity by half.
